Measured values taken from patent US20220372514A1 (SPYBIOTECH, published 2022).
Like-named read-outs stand apart in the source and are kept apart here.

What was measured:
[1] = molecular target: hexon protein on the viral capsid of Ad5 vectors with SpyTag inserted into HVR loops (loop not specified); assay: covalent coupling of SpyCatcher to virions, SDS-PAGE band densitometry (ImageJ)
Ad5-HVR5-DogTag Hexon [2] = molecular target: T1, Ad5-HVR5-DogTag Hexon (human adenovirus serotype 5 (Ad5), UniProt P04133 21-952)
T1 construct: also called HVR5DT; Ad5(GFP) HVR5 DogTag

Ad5-HVR5-DogTag Hexon [3] = molecular target: T1, Ad5-HVR5-DogTag Hexon; remark: listed apart in the source
Ad5-HVR5-DogTag Hexon [4] = molecular target: T1, Ad5-HVR5-DogTag Hexon; remark: listed apart in the source
Ad5-HVR2-DogTag Hexon = molecular target: T2, Ad5-HVR2-DogTag Hexon (human adenovirus serotype 5 (Ad5), UniProt P04133 30-952)
T2 construct: also called HVR2DT; hexon-DogTag

Ad5-HVR1-DogTag Hexon = molecular target: T3, Ad5-HVR1-DogTag Hexon (human adenovirus serotype 5 (Ad5), UniProt P04133 2-952)
T3 construct: also called HVR1DT; hexon-DogTag

SpyCatcher (designed binder) was tested, and the % of hexon protein coupled [1] was greater than 50%.

B1: Biotin-SnoopTagJr (peptide)
peptide: GKLGSIEFIKVNK
modifications: N-terminal biotin
notes: also called SnJr-biotin; Biotinylated SnJr-peptide
B1: binds (Ad5-HVR5-DogTag Hexon [2]).

B2: DogCatcher-NANP18 (other)
chain: MAHHHHHHVGTGKLGDIEFIKVNKNDKKPLRGAVFSLQKQHPDYPDIYGAIDQNGTYQNVRTGEDGKLTFKNLSDGKYRLFENSEPAGYKPVQNKPIVAFQIVNGEVRDVTSIVPQGSGGSGGSNANPNANPNANPNANPNANPNANPNANPNANPNANPNANPNANPNANPNANPNANPNANPNANPNANPNANP
notes: also called DC-NANP18
B2: binds (Ad5-HVR5-DogTag Hexon [3]).

B3: DogCatcher (designed binder)
chain: MGSSHHHHHHSSGLVPRGSHMKLGDIEFIKVNKNDKKPLRGAVFSLQKQHPDYPDIYGAIDQNGTYQNVRTGEDGKLTFKNLSDGKYRLFENSEPAGYKPVQNKPIVAFQIVNGEVRDVTSIVPQ
notes: His-tagged DogCatcher expressed in E. coli; forms a spontaneous isopeptide bond with DogTag; also called DC; RrgACatcher
For B3, the “coverage of capsid hexon (%)” value (Ad5-HVR5-DogTag Hexon [4]) was greater than 90%, the “coverage of capsid hexon (%)” value (Ad5-HVR2-DogTag Hexon) was greater than 90% and the “coverage of capsid hexon (%)” value (Ad5-HVR1-DogTag Hexon) was greater than 90%.

B4: DogCatcher-NANP9 (other)
chain: MAHHHHHHVGTGKLGDIEFIKVNKNDKKPLRGAVFSLQKQHPDYPDIYGAIDQNGTYQNVRTGEDGKLTFKNLSDGKYRLFENSEPAGYKPVQNKPIVAFQIVNGEVRDVTSIVPQGSGGSGGSNANPNANPNANPNANPNANPNANPNANPNANPNANP
B4: binds (Ad5-HVR5-DogTag Hexon [3]).

B5: DogCatcher-NANP Domain (other)
chain: MAHHHHHHVGTGKLGDIEFIKVNKNDKKPLRGAVFSLQKQHPDYPDIYGAIDQNGTYQNVRTGEDGKLTFKNLSDGKYRLFENSEPAGYKPVQNKPIVAFQIVNGEVRDVTSIVPQGSGGSGGSNANPNVDPNANPNVDPNANPNVDPNANPNANPNANPNANPNANPNANPNANPNANPNANPNANPNANPNANPNANPNANPNANPNANPNANPNVDPNANPNANPNANPNANPNANPNANPNANPNANPNANPNANPNANPNANPNANPNANPNANPNANPNANPNANP
B5: binds (Ad5-HVR5-DogTag Hexon [3]).
